B2: Zip2^499–704 (domain or fragment)
chain: ENKCIAVNENKVIENQKVIQSLCKNSHLDLIEQSYFGECDFIINHSTCVYKIQASRFMQLRNNGSLHYDKAVNDLLTEFQRVIIIVEFSEIIQDVDPDLFWKIKLYLLNSRVDVFFIHETTDFFIDWMKYFIARWAFSYNDEKEKNIANADILLDLGFNILLVRKIFQTYSLEEFFMAIIKEESKAVKMLTVSQMTRLKKLLTLEW
B3: His6-Spo16 (natural protein)
chain: SEFFWDVQKIQEISNVEEHSVVKCVTVNTSRLISQLNEELQDEESGVNFIVTQLQLLINNVYEKIQKSPGVPAHRSLMINLNFTRLKFSIAYWDILLERSLDLINGPSKTGARYFITEVTPVDRSRYVENNQYFLAFKANQRLTRNSVDMDEFIDFEILIKQIIFDLFKKNGIPDQDFEAILSRFHNLESLVVAFNE

Legend:
[1] = molecular target: T1, surface-lysine methylated Zip2^499–704 (S. cerevisiae, UniProt P53061 499-704); experiment: crystal structure
T1 sequence: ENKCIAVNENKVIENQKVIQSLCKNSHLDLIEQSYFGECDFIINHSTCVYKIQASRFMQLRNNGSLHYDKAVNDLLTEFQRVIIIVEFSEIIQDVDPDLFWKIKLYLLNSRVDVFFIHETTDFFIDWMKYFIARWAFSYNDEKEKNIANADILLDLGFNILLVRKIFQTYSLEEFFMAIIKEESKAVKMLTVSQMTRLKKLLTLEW

His6-Spo16 = molecular target: B3; experiment: SEC-MALS
Zip2^499–704 = molecular target: B2; experiment: co-purification after co-expression

B1: surface-lysine methylated His6-Spo16 (natural protein)
chain: SEFFWDVQKIQEISNVEEHSVVKCVTVNTSRLISQLNEELQDEESGVNFIVTQLQLLINNVYEKIQKSPGVPAHRSLMINLNFTRLKFSIAYWDILLERSLDLINGPSKTGARYFITEVTPVDRSRYVENNQYFLAFKANQRLTRNSVDMDEFIDFEILIKQIIFDLFKKNGIPDQDFEAILSRFHNLESLVVAFNE
modifications: surface lysine residues dimethylated (dimethyllysine)
B1: binds [1].

B2 was tested, and the “stoichiometry N” value (His6-Spo16) was 1.

B3: binds (Zip2^499–704).
